{"source": "patent US8034783B2", "about": "“Prodomain modulators of ADAM 10” (Biozyme, Inc., priority 2006, dated 2011)", "molecules": {"B1": {"name": "C173S ProADAM 10 23-213 (C-terminal His tag): mouse ADAM 10 prodomain 23-213 with cysteine 173 mutated to serine, C-terminal His tag (protein, UniProt O35598 23-213, looked up, variant C173S)", "chain": "NPLNKYIRHYEGLSYNVDSLHQKHQRAKRAVSHEDQFLLLDFHAHGRQFNLRMKRDTSLFSDEFKVETSNKVLDYDTSHIYTGHIYGEEGSFSHGSVIDGRFEGFIKTRGGTFYIEPAERYIKDRILPFHSVIYHEDDINYPHKYGPQGGSADHSVFERMRKYQMTGVEEGARAHPEKHAASSGPELLRKK", "modifications": "pro-form C-terminal His tag", "notes": "mouse ADAM 10 prodomain 23-213 with cysteine 173 mutated to serine, C-terminal His tag"}}, "key": {"[1]": {"system": "CD23 shedding in Ramos cells", "assay": "CD23 release from Ramos cells, soluble CD23 ELISA", "type": "cell-based", "settings": "150-600 nM, IL-4, 24 hr, FIG. 2A", "procedure": "ADAM 10 prodomains were also tested in assays to determine if ADAM 10 protein functions as a CD23 sheddase. Cells (100,000 per well) were seeded in round-bottomed 96-well plates (Sarstedt, Newton, N.C.) in 0.2 ml of media supplemented with IL-4 with inhibitors (A10 23-215 150-600 nM, GM6001 10-50 μM, TAPI-2 10-50 μM, or TIMPs 250 nM) or vehicle controls (A10 23-215 buffer: 25 mM NaH2PO4 pH 7.0, 125 mM KCl, 75 mM NaCl 20% glycerol, PBS, or dimethyl sulfoxide). Cells were cultured for 24 hr. The conditioned medium was harvested by centrifugation (2000×g, 15 min). The conditioned medium was assayed by ELISA for soluble CD23 according to the manufacturers' instructions (BD Biosciences, Invitrogen)."}, "[2]": {"target": "T1, mouse ADAM 10 catalytic domain (Mus musculus, UniProt O35598)", "T1 construct": "mouse ADAM 10 catalytic domain (unpublished observation)", "T1 sequence (O35598 221-457 limits assumed)": "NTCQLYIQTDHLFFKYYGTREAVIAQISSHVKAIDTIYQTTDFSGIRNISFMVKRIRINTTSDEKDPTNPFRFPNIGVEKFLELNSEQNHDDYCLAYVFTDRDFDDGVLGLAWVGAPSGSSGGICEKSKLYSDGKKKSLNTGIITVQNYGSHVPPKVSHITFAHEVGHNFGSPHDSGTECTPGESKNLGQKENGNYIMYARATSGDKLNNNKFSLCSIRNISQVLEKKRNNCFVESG", "assay": "Inhibition of mouse ADAM 10 catalytic domain (unpublished observation)", "type": "biochemical", "procedure": "Mechanism of ADAM 10 prodomain inhibition. For metalloproteinases that exist as zymogens, the presence of a cysteine in their prodomains is often necessary for inhibition of catalytic activity. […] For some of the ADAM family members, the cysteine is required for efficient inhibition of the enzyme. Therefore, a test was conducted to determine whether the cysteine in the putative cysteine switch of ADAM10 prodomain affected the potency of inhibition by preparing a C-terminal His tag construct with the only cysteine mutated to serine. […] The wild type prodomains (23-213), containing either the N- or C-terminal His tags, were both efficient inhibitors of ADAM10 (Table II), with inhibition constants of 75 and 48 nM respectively."}, "ADAM 10 (human) Cat/Dis": {"target": "T2, ADAM 10 (human) Cat/Dis (Homo sapiens, UniProt O14672)", "T2 construct": "containing the catalytic/disintegrin domains; purchased R & D Systems (Minneapolis, Minn., USA)", "T2 sequence (O14672 214-672 limits assumed)": "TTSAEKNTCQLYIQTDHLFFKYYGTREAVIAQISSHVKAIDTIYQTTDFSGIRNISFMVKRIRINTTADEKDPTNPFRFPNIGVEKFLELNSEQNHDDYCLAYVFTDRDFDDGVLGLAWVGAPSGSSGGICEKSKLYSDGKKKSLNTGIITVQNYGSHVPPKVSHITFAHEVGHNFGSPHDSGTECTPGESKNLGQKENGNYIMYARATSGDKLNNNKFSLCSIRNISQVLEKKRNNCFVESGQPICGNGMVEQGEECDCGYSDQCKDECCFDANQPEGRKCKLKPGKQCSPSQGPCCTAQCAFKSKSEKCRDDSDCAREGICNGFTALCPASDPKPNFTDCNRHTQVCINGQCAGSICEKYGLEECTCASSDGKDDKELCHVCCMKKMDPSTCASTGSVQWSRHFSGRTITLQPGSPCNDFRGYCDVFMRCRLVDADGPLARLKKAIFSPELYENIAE", "assay": "Inhibition assay with ADAM10 catalytic/disintegrin construct, fluorescent substrate", "type": "biochemical", "settings": "room temperature, 10 μM fluorescent substrate; read-out: inhibition constant (Ki), ADAM 10 (human) Cat/Dis", "procedure": "Inhibition assays with TACE and ADAM 10. Activity of TACE catalytic/disintegrin, TACE catalytic, or ADAM10 catalytic/disintegrin constructs was monitored at 3 minute intervals using the fluorescent substrate, Dabcyl-LAQAHomoPheRSC(Fluorescein)-NH2 (SEQ ID NO 17) with excitation 485 nm and emission 530 nm. The substrate was diluted from a 10 mM stock in DMSO to 10 μM in assay buffer containing 20 mM Tris, pH 8.0, and 0.0006% Brij-35. Reactions were run in a 96-well black-coated plate with either ADAM10 prodomain (10 nM-1.0 μM) alone or with enzyme. Concentrations of enzyme ranged from 0.5-2.0 nM for TACE and 5-15 nM for ADAM10. For assays with TACE and ADAM8 prodomain, the range of concentrations varied from 1-4.7 μM.\nCalculation of inhibition constants. The amount of activity was calculated by subtracting the ADAM 10 prodomain control from the ADAM 10 prodomain with enzyme. All inhibition assays were performed at room temperature and the data fit to the following equation using Sigma Plot software:\n[formula] where If is fractional inhibition, I is the inhibitor concentration and Ki is the inhibition constant.\nWild type ADAM 10 prodomain (23-213) was tested to determine the mode of inhibition of ADAM 10 protein. ADAM 10 protein was diluted 1:100 in buffer 25 mM Tris pH 8, 0.0006% Brij-35 and then 10 μl was added to 88 μl of substrate (20-100 μM), Dabcyl-LAQAHomoPheRSC(Fluorescein)-NH2 with excitation 485 nm and emission 530 nm. Prodomain, 2 μl, in 25 mM Tris, pH 8, 100 mM NaCl, 10% glycerol, 0.1% mercaptoethanol, and 50 μM CaCl2 was added to substrate before addition of enzyme. The final concentration of prodomain ranged from 17-170 nM. The fluorescence vs time was plotted, and slopes were taken from straight line fits of initial velocities. The reciprocal of the velocities was plotted vs the reciprocal of substrate squared since the normal Lineweaver Burke plot gave curved lines. The initial velocities vs substrate concentrations were fit as a family of curves to several allosteric models."}}}
{"molecule": "B1", "values": [{"measurement": "inhibition of CD23 shedding, Ramos cells", "setting": "[1]", "value": "about 30%"}, {"measurement": "Ki", "setting": "[2]", "value": "17 ± 10", "unit": "nM"}, {"measurement": "Ki", "setting": "ADAM 10 (human) Cat/Dis", "value": "36 ± 9", "unit": "nM"}]}
